{"source": "patent US20090175866A1", "about": "“TREATMENT OF B-CELL MALIGNANCIES” (priority 2004, published 2009)", "molecules": {"B1": {"name": "PRO-001: human anti-FGFR3 Fab from HuCAL library; VH-CDR3 SEQ ID NO:1, VL-CDR3 SEQ ID NO:10; VH SEQ ID NO:19, VL SEQ ID NO:28 (antibody, V domains shown)", "VH": "QVQLQQSGPGLVKPSQTLSLTCAISGDSVSSNSAAWNWIRQSPGRGLEWLGRTYYRSKWYNDYAVSVKSRITINPDTSKNQFSLQLNSVTPEDTAVYYCARSYYPDFDYWGQGTLVTVSS", "VL": "DIELTQPPSVSVAPGQTARISCSGDALGDKYASWYQQKPGQAPVLVIYDDSDRPSGIPERFSGSNSGNTATLTISGTQAEDEADYYCQSYDGPDLWVFGGGTKLTVLGQ"}}, "key": {"FGFR3": {"biological_target": "FGFR3 (Homo sapiens, UniProt P22607)", "sequence (P22607 23-806)": "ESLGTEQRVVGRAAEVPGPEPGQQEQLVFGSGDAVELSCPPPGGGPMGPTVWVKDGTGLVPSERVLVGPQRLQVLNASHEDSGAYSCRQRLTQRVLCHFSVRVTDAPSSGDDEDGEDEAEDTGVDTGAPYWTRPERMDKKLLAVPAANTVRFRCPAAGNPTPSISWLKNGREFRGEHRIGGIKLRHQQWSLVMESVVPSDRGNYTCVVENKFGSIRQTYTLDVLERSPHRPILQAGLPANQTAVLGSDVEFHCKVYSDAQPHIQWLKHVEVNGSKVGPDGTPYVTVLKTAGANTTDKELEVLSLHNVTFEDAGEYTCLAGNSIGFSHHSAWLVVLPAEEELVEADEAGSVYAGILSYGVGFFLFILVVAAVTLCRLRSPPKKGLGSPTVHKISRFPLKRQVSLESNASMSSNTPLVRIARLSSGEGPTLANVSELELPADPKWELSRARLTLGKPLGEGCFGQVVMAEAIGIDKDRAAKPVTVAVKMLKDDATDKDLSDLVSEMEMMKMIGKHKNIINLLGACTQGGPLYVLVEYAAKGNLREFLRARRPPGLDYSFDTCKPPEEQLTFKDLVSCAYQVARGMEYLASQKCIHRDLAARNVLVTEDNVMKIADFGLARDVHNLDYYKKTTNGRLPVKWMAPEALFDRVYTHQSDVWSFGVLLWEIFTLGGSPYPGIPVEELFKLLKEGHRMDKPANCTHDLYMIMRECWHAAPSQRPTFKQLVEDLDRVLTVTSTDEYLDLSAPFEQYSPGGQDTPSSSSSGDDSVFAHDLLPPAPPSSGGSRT", "test": "FGFR3 domain specificity of binding"}, "H929 cells": {"tested_on": "H929 cells", "test": "Viability of H929 myeloma cells (MTT)", "type": "cell-based, human", "conditions": "5 μg/ml", "description": "(§1) FIG. 2 is a graph showing the viability of human myeloma cell lines in the presence of PRO-001. Viability is reported as the ratio between the optical density (OD) in the presence of FGF±inhibitor and the OD in the absence of FGF.\n(§2) Non-transformed rat chondrocyte cell line expressing PGFR3 in an inducible manner (RCJ-FGFR3) has been described previously (Rauchenberger R. et al. J. Biol. Chem. 2003; 278:38194-205). Cells were maintained in α-Minimum Essential Media supplemented with 15% fetal calf serum (FCS), 2 mM L-Glutamine, 100 U/ml penicillin, 100 μg/ml streptomycin, 600 μg/ml G418 (Gibco BRL, Ontario, Canada), 2 μg/ml Tetracyclin (Sigma, Ontario, Canada), and 50 μg/ml HygromycinB (Gibco BRL). […]\n(§3) Cell viability was assessed by 3-(4,5-dimethylthiazol)-2,5-diphenyl tetrazolium (MTT) or (2,3-bis(2-methoxy-4-nitro-5-sulphophenyl)-5-[(phenylamino) carbonyl]-2H-tetrazolium hydroxide (XTT) dye absorbance where indicated. Cells were seeded in 96-well plates at a density of 20,000 (FDCP-1 cells), 5,000 (B9 cells) or 25,000 cells (MM cell lines) per well in culture medium. Cells were incubated in the absence or presence of one of the following cytokines: 10 ng/ml FGF9 and 5 μg/ml heparin, 1% murine IL-6, 50 ng/ml IGF-1 or 50 ng/ml human IL-6 where indicated and increasing concentrations of PRO-001, control antibody (purified human Fab) or 100 nM PD173074. […]"}, "FGFR1": {"biological_target": "FGFR1 (Homo sapiens, UniProt P11362)", "sequence (P11362 22-822, species assumed)": "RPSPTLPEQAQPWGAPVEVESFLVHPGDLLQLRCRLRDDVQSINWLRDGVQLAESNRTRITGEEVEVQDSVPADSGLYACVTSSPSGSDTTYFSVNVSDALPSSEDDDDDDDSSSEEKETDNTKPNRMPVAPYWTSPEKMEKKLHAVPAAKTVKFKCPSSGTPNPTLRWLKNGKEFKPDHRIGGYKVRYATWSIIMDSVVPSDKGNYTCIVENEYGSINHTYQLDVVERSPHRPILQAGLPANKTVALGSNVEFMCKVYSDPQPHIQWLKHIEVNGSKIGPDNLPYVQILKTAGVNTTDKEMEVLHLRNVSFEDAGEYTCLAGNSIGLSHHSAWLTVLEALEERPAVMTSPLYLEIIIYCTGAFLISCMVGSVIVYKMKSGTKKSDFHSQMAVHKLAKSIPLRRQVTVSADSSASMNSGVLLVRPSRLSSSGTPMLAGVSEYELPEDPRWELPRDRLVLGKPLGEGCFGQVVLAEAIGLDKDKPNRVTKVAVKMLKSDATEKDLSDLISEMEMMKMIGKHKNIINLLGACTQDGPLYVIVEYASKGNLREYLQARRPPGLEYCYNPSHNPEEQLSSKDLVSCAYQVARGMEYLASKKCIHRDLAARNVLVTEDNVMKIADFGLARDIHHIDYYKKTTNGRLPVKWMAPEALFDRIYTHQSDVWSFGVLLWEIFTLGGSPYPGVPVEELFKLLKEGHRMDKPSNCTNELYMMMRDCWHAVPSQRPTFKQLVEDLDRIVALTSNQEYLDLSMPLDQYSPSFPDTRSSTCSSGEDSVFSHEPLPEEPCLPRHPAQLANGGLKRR", "test": "FGF-stimulated proliferation of FDCP-FGFR1 cells (XTT)", "type": "cell-based", "conditions": "up to 10 fold higher concentrations than the FDCP-FGFR3 IC50", "description": "FIG. 1D is a graph showing proliferation of FGFR expressing FDCP cells in the presence of increasing concentrations of PRO-001 as determined by XTT analysis. Data are the average of duplicate cultures. The X axis represents concentration of PRO-001 Fab. The Y axis represents % inhibition.\nNon-transformed rat chondrocyte cell line expressing PGFR3 in an inducible manner (RCJ-FGFR3) has been described previously (Rauchenberger R. et al. J. Biol. Chem. 2003; 278:38194-205). […]\nas §3"}, "WT FGFR3": {"biological_target": "T1, WT FGFR3 (Homo sapiens, UniProt P22607)", "T1 construct": "expressed in transfected cells; host or cells: B9 cells", "T1 sequence (P22607 23-806)": "as the sequence (P22607 23-806) above", "test": "Ligand-stimulated receptor phosphorylation in RCJ-FGFR3 cells (immunoprecipitation, Western blot)", "type": "cell-based", "experimental": "FIG. 1C is a photograph of a Western blot showing immune staining of RCJ-FGFR3 cell lysates. RCJ cells were stimulated with FGF (+) with or without pre-incubation with a Fab. Lane 1—no FGF stimulation and no pre-incubation with a Fab. Lane 2—FGF stimulation, no pre-incubation with a Fab. Lane 3—FGF stimulation and pre incubation with a control (C) antibody. Lane 4—FGF stimulation and pre-incubation with an anti-FGFR3 (001) Fab.\nas §2\nCells were lysed in lysis buffer (50 mM Tris/HCl, pH 8.0, 150 mM […], 0.1 mM ZnCl2, 0.5% Nonidet NP-40, 1 mg/ml, complete protease inhibitor mix (Roche Molecular Biochemicals, Mannheim, Germany)), and clarified by centrifugation at 12,000×g for 15 minutes. The lysates were subjected to immunoprecipitation for 16 hours at 4° C. with anti-FGFR3 (C15) and analyzed by 7.5% sodium dodecyl-polyacrylamide gel electrophoresis (SDS-PAGE) and Western blot with anti-phosphotyrosine (4G10 from R&D). […]"}, "8226 cells": {"tested_on": "8226 cells", "test": "Viability of 8226 myeloma cells (MTT)", "type": "cell-based, human", "conditions": "5 μg/ml, cells lack FGFR3 expression", "description": "as §1, §2, §3"}}, "data": [{"molecule": "B1", "values": [{"measurement": "FGFR3 Domain Specificity", "setting": "FGFR3", "value": 2}, {"measurement": "Cell growth of H929 cells in the presence of FGF", "setting": "H929 cells", "value": "resistant"}, {"measurement": "Proliferation of FDCP-1 cells expressing FGFR1", "setting": "FGFR1", "value": "unaffected"}, {"measurement": "Downstream JNK phosphorylation", "setting": "WT FGFR3", "value": "reduction in downstream JNK phosphorylation"}, {"measurement": "Ligand-stimulated autophosphorylation of FGFR3", "setting": "WT FGFR3; anti-phosphotyrosine immunoblot", "value": "inhibited"}, {"measurement": "Cell growth of 8226 cells in the presence of FGF", "setting": "8226 cells", "value": "resistant"}]}]}
